Source: patent publication US20250145690A1 (US Dept. of Health and Human Services, published 2025)

Assays:
Experiment in all cases: bead flow cytometry, AUC minus CD4
[1] = molecular target: T1, HCoV-NL63 spike protein (Sino Biological 40604-V08B) (HCoV-NL63, UniProt Q6Q1S2 19-1296)
T1 sequence: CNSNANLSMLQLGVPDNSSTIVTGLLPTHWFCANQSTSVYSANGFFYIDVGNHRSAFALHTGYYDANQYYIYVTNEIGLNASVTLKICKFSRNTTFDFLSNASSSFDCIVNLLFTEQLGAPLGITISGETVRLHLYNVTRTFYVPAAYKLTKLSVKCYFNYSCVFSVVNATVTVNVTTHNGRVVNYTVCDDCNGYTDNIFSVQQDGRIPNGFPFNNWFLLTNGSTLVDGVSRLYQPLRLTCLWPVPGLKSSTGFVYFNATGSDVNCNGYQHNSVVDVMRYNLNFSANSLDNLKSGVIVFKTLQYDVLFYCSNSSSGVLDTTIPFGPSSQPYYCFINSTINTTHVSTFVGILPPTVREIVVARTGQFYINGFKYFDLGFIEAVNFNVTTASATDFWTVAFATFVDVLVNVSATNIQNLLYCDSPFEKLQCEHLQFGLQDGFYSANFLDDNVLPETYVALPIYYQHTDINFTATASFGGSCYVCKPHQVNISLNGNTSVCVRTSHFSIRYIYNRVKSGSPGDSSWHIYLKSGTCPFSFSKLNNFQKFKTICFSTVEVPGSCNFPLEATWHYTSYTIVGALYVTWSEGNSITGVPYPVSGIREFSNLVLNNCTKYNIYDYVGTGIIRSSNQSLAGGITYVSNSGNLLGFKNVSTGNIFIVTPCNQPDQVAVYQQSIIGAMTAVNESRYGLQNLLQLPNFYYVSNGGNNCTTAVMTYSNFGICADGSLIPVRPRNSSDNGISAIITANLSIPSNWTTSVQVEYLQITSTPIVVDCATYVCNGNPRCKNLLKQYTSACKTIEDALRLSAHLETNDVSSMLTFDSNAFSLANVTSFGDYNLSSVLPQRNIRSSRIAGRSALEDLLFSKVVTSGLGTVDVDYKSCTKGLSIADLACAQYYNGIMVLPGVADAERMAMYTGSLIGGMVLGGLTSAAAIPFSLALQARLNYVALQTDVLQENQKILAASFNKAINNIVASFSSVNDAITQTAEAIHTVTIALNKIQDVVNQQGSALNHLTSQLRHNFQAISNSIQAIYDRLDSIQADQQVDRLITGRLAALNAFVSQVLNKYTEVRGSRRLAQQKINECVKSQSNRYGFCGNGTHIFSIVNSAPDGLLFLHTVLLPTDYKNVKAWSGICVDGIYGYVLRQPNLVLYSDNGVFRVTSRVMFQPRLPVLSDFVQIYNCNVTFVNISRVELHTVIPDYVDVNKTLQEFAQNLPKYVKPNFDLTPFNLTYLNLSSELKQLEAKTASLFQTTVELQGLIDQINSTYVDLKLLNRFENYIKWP

[2] = molecular target: T2, HCoV-229E spike protein (Sino Biological 40605-V08B) (HCoV-229E, UniProt P15423 16-1115)
T2 sequence: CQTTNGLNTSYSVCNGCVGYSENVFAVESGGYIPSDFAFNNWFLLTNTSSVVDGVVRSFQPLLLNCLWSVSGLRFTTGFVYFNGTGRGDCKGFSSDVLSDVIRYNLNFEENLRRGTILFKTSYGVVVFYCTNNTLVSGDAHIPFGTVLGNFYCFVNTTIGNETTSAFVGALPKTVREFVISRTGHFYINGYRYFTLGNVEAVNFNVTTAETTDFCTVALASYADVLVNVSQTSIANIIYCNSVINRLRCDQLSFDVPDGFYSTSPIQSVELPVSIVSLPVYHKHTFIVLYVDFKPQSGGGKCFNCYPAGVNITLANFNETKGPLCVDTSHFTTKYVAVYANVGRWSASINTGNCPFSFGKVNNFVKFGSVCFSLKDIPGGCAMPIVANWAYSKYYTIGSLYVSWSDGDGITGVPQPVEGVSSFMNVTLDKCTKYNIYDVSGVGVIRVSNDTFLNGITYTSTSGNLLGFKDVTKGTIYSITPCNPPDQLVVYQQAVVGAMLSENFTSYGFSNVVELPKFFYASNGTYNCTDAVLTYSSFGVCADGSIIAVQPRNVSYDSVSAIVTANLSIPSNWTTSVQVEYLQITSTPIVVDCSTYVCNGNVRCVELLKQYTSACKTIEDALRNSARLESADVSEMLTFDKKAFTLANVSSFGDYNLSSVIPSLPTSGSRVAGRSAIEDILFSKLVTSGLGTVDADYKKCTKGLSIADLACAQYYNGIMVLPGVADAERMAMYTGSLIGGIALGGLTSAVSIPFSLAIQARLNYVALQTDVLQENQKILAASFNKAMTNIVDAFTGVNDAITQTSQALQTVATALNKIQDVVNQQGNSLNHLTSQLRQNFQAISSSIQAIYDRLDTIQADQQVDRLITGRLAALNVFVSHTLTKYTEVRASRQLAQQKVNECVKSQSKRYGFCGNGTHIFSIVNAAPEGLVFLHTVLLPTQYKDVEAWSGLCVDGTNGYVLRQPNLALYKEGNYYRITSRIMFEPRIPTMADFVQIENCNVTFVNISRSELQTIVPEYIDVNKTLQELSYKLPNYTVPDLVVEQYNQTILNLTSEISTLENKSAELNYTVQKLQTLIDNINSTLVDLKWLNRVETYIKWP

[3] = molecular target: T3, SARS-CoV-2 spike S2 subunit, recombinant (SARS-CoV-2, UniProt P0DTC2 686-1213)
T3 construct: domain: S2 subunit

[4] = molecular target: SARS-CoV-2 spike receptor binding domain (RBD), recombinant (SARS-CoV-2, UniProt P0DTC2 319-541)
[5] = molecular target: SARS-CoV-2 spike N-terminal domain (NTD), recombinant (SARS-CoV-2, UniProt P0DTC2 14-305)
MERS-CoV spike protein = molecular target: T4, MERS-CoV spike protein (MERS-CoV, UniProt K9N5Q8 18-1291)
T4 sequence: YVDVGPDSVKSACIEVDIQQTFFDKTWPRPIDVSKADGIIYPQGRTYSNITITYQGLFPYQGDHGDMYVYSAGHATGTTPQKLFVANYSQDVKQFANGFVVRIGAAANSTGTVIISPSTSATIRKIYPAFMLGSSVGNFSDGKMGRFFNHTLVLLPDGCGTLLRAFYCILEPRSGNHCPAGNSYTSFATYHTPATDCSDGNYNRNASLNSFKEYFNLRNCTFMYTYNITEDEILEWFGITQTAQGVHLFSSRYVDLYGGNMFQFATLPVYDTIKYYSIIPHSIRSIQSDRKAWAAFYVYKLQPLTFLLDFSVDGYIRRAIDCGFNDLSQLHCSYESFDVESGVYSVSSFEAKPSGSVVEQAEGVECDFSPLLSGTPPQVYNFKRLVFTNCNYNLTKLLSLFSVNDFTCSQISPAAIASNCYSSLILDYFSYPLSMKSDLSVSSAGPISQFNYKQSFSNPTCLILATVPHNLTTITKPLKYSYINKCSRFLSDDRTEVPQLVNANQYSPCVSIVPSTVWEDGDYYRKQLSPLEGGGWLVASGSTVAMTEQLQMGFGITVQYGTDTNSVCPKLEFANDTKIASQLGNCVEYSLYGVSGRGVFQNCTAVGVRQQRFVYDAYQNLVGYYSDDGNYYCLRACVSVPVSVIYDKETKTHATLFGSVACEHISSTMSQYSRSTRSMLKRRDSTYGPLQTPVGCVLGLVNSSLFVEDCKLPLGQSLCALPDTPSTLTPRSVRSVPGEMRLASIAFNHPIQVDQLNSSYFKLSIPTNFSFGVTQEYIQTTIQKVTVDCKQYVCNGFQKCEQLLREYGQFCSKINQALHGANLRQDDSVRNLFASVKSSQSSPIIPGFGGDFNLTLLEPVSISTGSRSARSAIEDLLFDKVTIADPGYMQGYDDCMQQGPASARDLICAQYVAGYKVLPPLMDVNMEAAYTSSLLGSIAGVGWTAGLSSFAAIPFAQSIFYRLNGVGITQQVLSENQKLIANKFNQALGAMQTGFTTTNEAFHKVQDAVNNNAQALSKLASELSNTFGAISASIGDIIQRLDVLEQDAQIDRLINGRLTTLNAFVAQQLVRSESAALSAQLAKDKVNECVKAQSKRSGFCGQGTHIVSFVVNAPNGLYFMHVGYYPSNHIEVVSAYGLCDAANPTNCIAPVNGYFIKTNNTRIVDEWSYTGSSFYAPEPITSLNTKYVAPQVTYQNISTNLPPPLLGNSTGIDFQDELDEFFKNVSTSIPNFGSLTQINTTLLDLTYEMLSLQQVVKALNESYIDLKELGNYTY

Measured: binding result

B1: COV89-28 (antibody, V domains shown)
VH: EVQLVESGGGLVQPGRSLRLSCAASGFTFDDYAMHWVRQAPGKGLEWVSSISWNSGSIVYADSVTGRCTITRDNAKNSLYLQMNSLRPEDTALYYCAKGYSSSPVVYYMDVWGKGTTVTVSS
VL: DIQMTQSPSSVSASVGDRVTITCRASQGIAGWFAWYQQKPGKAPKLLIYATSSLQRGVPSRFSGSGSATHFTLTITSLQPEDFATYYCQQANIFGPGTKVDIK
not listed: MERS-CoV spike protein
no binding (tested: 200 µg/mL): all other assays above

B2: COV93-04 (antibody, V domains shown)
VH: QLQLQESGSGLVKPSQTLSLTCVVSGDSISSGGYSWSWIRQQPGKALEWIGYIYHSGVTNYNPSLKSRVTISVDRSTNQFSLKLSSVTAADTAVYYCARDGKYNWFDPWGQGILVTVSS
VL: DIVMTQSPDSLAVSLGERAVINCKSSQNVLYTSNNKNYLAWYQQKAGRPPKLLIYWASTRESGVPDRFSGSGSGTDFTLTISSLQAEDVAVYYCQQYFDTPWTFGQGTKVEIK
not listed: MERS-CoV spike protein
no binding (tested: 200 µg/mL): all other assays above

B3: COV49-42 (antibody, V domains shown)
VH: QVHLVQSGAEVKNPGVSVKVSCKASGYTFTTSGITWVRQAPGQGLEWMGWISTYNGNTETAQTFQGRVTMTTDTSTSTAYMELRRLRSDDTAVYYCARVQSVATSSNYFFDYWGQGTRVTVSS
VL: DIQMTQSPSSLSASVGDRVTITCRASQTIDRFLNWYQQKPGKAPKLLIYAASRLQSGVPSRFSGSGSGTTYTLTISSLQPEDFATYFCQQSYSDPRALTFGGGTKVEIK
not listed: MERS-CoV spike protein
no binding (tested: 200 µg/mL): all other assays above

B4: COV77-02 (antibody, V domains shown)
VH: QVQLVESGGGVVQPGRSLRLSCAASGFTFSDHGMHWVRQAPGKGLQWVALIWYDGSNMFYRDSVKGRFTISRDNSKNTVYLEMSSLRAEDTALYYCARGTDVWSGLSLDALDVWGQGTMVTVSP
VL: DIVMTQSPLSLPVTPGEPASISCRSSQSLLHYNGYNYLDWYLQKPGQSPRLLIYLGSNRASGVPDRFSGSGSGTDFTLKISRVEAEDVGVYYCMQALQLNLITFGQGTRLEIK
not listed: MERS-CoV spike protein
no binding (tested: 200 µg/mL): all other assays above

B5: COV57-01 (antibody, V domains shown)
VH: QVQLVESGGGVVQPGRSLRLSCTVSGFTFNNYGMHWVRQAPGKGLEWLAVISYEGSKKFYADSLEGRFSISRDSSKNTLYLQMNSLTIEDTAVYFCAKRNSIFWFGEGRKDAFDVWGQGTRVIVSS
VL: DIQLTQSPSSLSASVGDRVTITCRASQTVDNYLNWYQQLPGKAPKLLIHTASTLQSGVPSRFSATSSGTDFTLTISGLQPDDSATYFCQQSYSVPLTFGGGTKVEIKV
no binding (tested: 200 µg/mL): MERS-CoV spike protein | [1]
